B1: Lsb3 (protein)
chain: MGINNPIPRSLKSETKKAAKILASFVKPNQVFGADQVIPPDVLKRAKGLAIITILKAGFLFSGRAGSGVIVARLKDGTWSAPSAIAMAGAGAGGMVGIELTDFVFILNTQDAVKSFSEFGTITLGGNVSVSAGPLGRSAEAAASASAGGVAAVFAYSKSKGLFAGVSVEGSAIIERREANRKFYGDNCTAKMILSGRIRPPPAVDPLFRVLESRAFNYRPSNGGRGSFDDDEDDYYDDDDYYNDIPSSFSSTDASSTRPNTRSTRRRAQSGSRYTFDDDDDDDDYGTGYSRNSRLAPTNSGGSGGKLDDPSGASSYYASHRRSGTAQSRARSSRNRWADDEYDDYDDDYESGYRRGNGRDRTKDREVDDLSNRFSKSRISSASTPQTSQGRFTAPTSPSTSSPKAVALYSFAGEESGDLPFRKGDVITILKKSDSQNDWWTGRVNGREGIFPANYVELV
modifications: left off: DHFR F[3], C-terminal, kept
B2: Hse1 (protein, UniProt P38753 2-452, looked up)
Class E vacuolar …: SSSAIKIRNALLKATDPKLRSDNWQYILDVCDLVKEDPEDNGQEVMSLIEKRLEQQDANVILRTLSLTVSLAENCGSRLRQEISSKNFTSLLYALIESHSVHITLKKAVTDVVKQLSDSFKDDPSLRAMGDLYDKIKRKAPYLVQPNVPEKHNMSTQADNSDDEELQKALKMSLFEYEKQKKLQEQEKESAEVLPQQQQQHQQQNQAPAHKIPAQTVVRRVRALYDLTTNEPDELSFRKGDVITVLEQVYRDWWKGALRGNMGIFPLNYVTPIVEPSKEEIEKEKNKEAIVFSQKTTIDQLHNSLNAASKTGNSNEVLQDPHIGDMYGSVTPLRPQVTRMLGKYAKEKEDMLSLRQVLANAERSYNQLMDRAANAHISPPVPGPALYAGMTHANNTPVMPPQRQSYQSNEYSPYPSNLPIQHPTNSANNTPQYGYDLGYSVVSQPPPGYEQ
B3: Lsb1 (protein, UniProt P53281 2-241, looked up)
LAS seventeen-binding protein …: SASLVNRSLKNIRNELEFLKESNVISGDIFELINSKLPEKWDGNQRSPQNADTEEYVEALYDFEAQQDGDLSLKTGDKIQVLEKISPDWYRGKSNNKIGIFPANYVKPAFTRSASPKSAEAASSSTVSRPSVPPPSYEPAASQYPSQQVSAPYAPPAGYMQAPPPQQQQAPLPYPPPFTNYYQQPQQQYAPPSQQAPVEAQPQQSSGASSAFKSFGSKLGNAAIFGAGSAIGSDIVNSIF
B4: Hof1 (protein, UniProt Q05080 1-669, looked up)
Cytokinesis protein 2: MSYSYEACFWDPNDNGVNILLGHISQGIRSCDSMILFFKQRSELEKDYARRLGAITGKLDKDIGTNMDYGKLNETFNVVLSVEKARAQSHSKQSEILFRQIYTDTKAFAANLQARYTTLSGKIERLRMDKFNKKKGCEVLQKKLQDAQIRFRDLQLNENNMIGAKRVEHNKRELLKWESNSQEYKVQLDVLKQEYKASQKFWIHEWAQLSCELQEMENARISFLQSKLQQFATSSMETYILEQTKMDMLTNHLNSFTAADEISTFSKENGTGRLKHKTSKGDMNSSANWAQMSSISTTSKKTESYMDNIRKLSSQLKETENKRKLASIDKYEKPLPSPEVTMATQFRNSTPVIRNETKVVANPTLSLRSSPVQLQSNVDDSVLRQKPDKPRPIVGEEQLKPDEDSKNPDEKGLMVHKRNQSLSSPSESSSSNPTDFSHIKKRQSMESMTTSVSSMANSIDDSQRFAKSWNSSNRKRKSMSHLQVPSSASSRSDDGGRTPNSAHNLNEDDYNTRRDTSTSTILFKPPVAVRGTSRGHTHRQSMIMQDSSNPIEDALYEMERIQSSSKPGTKTGNIMDERGVVRDRGITVTLPIVTSEGFPVIEYAKAMYPLIGNEAPGLANFHKGDYLLITEIVNKDWYKGEVYDNDRIDRNHRIGLIPYNFIQLLHQGL
B5: Myo5 (protein, UniProt Q04439 1-1219, looked up)
Myosin-5: MAILKRGARKKVHQEPAKRSANIKKATFDSSKKKEVGVSDLTLLSKISDEAINENLKKRFLNATIYTYIGHVLISVNPFRDLGIYTDAVMNEYKGKNRLEVPPHVFAIAESMYYNMKSYNENQCVIISGESGAGKTEAAKRIMQYIAAASSTHTESIGKIKDMVLATNPLLESFGCAKTLRNNNSSRHGKYLEIKFNNQFEPCAGNITNYLLEKQRVVSQIKNERNFHIFYQFTKGASDAYRQTFGVQKPEQYVYTAAAGCISAETIDDLQDYQETLKAMRVIGLGQEEQDQIFRMLAAILWIGNVSFIENEEGNAQVRDTSVTDFVAYLLQIDSQLLIKSLVERIMETNHGMKRGSVYHVPLNIVQADAVRDALAKAIYNNLFDWIVSRVNKSLQAFPGAEKSIGILDIYGFEIFEHNSFEQICINYVNEKLQQIFIQLTLKSEQETYEREKIQWTPIKYFDNKVVCDLIEARRPPGIFAAMNDSVATAHADSNAADQAFAQRLNLFTTNPHFDLRSNKFVIKHYAGDVTYDIDGITDKNKDQLQKDLVELIGTTTNTFLATIFPDTVDRESKRRPPTAGDKIIKSANDLVETLSKAQPSYIRTIKPNETKSPNDYDDRQVLHQIKYLGLQENVRIRRAGFAYRQVFEKFVERFYLLSPHCSYAGDYTWQGDTLDAVKYILQDSSIPQQEYQLGVTSVFIKTPETLFALEHMRDRYWHNMAARIQRAWRRFLQRRIDAATKIQRTIRERKEGNKYEKLRDYGTKVLGGRKERRSMSLLGYRAFMGDYLSCNESKSKGAYIKRQVSIKEKVIFSIHGEALHTKFGRSAQRLKKTFLLTPTTLYIVGQTLVQNAMTYTQDYKIDVRNIQAVSLTNLQDDWVAIKLASSGQPDPLINTYFKTELITHLKRLNDKIQIKIGSAIEYQKKPGKLHSVKCQINESAPKYGDIYKSSTISVRRGNPPNSQVHKKPRKKSSISSGYHASSSQATRRPVSIAAAQHVPTAPASRHSKKPAPPPPGMQNKAATRRSVPNPASTLTASQSNARPSPPTAATRATPAATPAAAAMGSGRQANIPPPPPPPPPSSKPKEPMFEAAYDFPGSGSPSELPLKKGDVIYITREEPSGWSLGKLLDGSKEGWVPTAYMKPHSGNNNIPTPPQNRDVPKPVLNSVQHDNTSANVIPAAAQASLGDGLANALAARANKMRLESDDEEANEDEEEDDW

tested on: Abp1 (1xFLAG); assay: Western blot expression level of Abp1 SH3-swapped baits (Fig. S2A-B); assay type: cell-based, Saccharomyces cerevisiae; parameters: Flag (2 bands): unit not given here; settings: Flag signal relative to Abp1 WT (Abp1-1 to Abp1-4 = 1); sheet FigS2A-B
Experimental: Precultures of yeast cells expressing baits fused with the DHFR F[1,2]-FLAG were grown overnight at 30 °C with agitation in synthetic complete medium. The next day, cells were expanded in synthetic complete medium to reach their exponential phase (OD600 of around 1.0), pelleted, and frozen at −80 °C. The equivalent of fifty OD600 of cells was resuspended in ice-cold yeast lysis buffer (10 mM Tris-HCl pH 7.4, 150 mM NaCl, 0.5 mM EDTA (Millipore Sigma), 1% Triton X-100 (Millipore Sigma), and one cOmplete Mini Protease Inhibitor Cocktail (Millipore Sigma) per 10 mL) with […] glass beads (Millipore Sigma) and disrupted at 4 °C by 10 cycles of 2 min vortexing and 2 min cooldown. The equivalent of […] of lysed cells was used for the immunoprecipitation of the bait proteins using FLAG-M2 agarose beads (Millipore Sigma). The beads were incubated with the cell lysates for 120 min at 4 °C with a slow rotation, followed by three washes with the yeast lysis buffer.
Protein extracts and affinity-purified baits from yeast and human lysed cells were migrated on 10% polyacrylamide gels. The separated proteins were then transferred to nitrocellulose membranes. Validation of correct protein loading was done with ponceau staining of the membranes. Before the primary antibody incubations, membranes were blocked in 5% milk. Protein signals were detected on an Amersham Imager 600RGB (GE Healthcare) following the incubation of the membranes with the appropriate HRP-conjugated secondary antibodies and the Clarity Western ECL Substrate (Bio-Rad). The antibodies used in this study are M2-HRP (A8592, Sigma, 1/50,000), rabbit anti-FLAG (F7425, Sigma, 1/1000), PAK (SC-881, Santa Cruz, 1/200), p130cas/BCAR1 (SC-860, Santa Cruz, 1/200), actin (Cell Signaling Technology, 1/2000), anti-mouse HRP (Cell Signaling Technology, 1/10,000) and anti-rabbit HRP (Cell Signaling Technology, 1/10,000). The quantification of the WB signals was performed with the Amersham Imager 600 analysis software (GE Healthcare).

Row | Molecule | Ratio Swap/WT Flag
1 | B1 | 0.537
2 | B2 | 0.5073
3 | B3 | 0.4741
4 | B4 | 1.051
5 | B5 | 0.7689

same assay, conditions: Western blot Flag signal (2 bands), Abp1 WT, SH3-deleted or SH3-swapped; sheet FigS2A-B

Row | Molecule | Flag (2 bands)
6 | B1 | 57357
7 | B2 | 54180
8 | B3 | 50638
9 | B4 | 112286
10 | B5 | 82124

tested on: Abp1 PPIs; assay: DHFR-PCA of Abp1 SH3-swapped baits (Fig. 2B-D, S2C, S2F); assay type: cell-based, Saccharomyces cerevisiae; settings: number of interactions of Abp1 carrying the named SH3; sheet FigS2A-B
Text: Having determined that multiple PPIs require SH3s, we asked whether the latter establish PPI specificity independently from their host proteins by swapping domains (Fig. 2A). Using the second round of genome editing, we individually replaced Abp1 SH3 with the 27 yeast SH3s and 3 human Abp1 orthologs’ SH3s (CTTN, HCLS1, and DBNL, Fig. 2B). The reintroduction of its own SH3 (Abp1SH3 in Abp1) reconstitutes almost perfectly Abp1’s interaction profile (Kendall’s τ = 0.93, Fig. 2B). […] No homologous SH3 domain fully re-establishes the normal Abp1 PPI profile (Fig. 2B and Supplementary Fig. 2C). However, we observe a significant correlation (cophenetic correlation = 0.20, p value = 0.005, Fig. 2C) between the similarity of PPI profiles (Fig. 2B) and the sequence similarity of the SH3s. […] Nonetheless, a subset of SH3-dependent PPIs is only observed with the endogenous domain. For instance, Hua2 and App1, both well-characterized partners of Abp1[14],[18],[19], are only detected when Abp1 contains its own SH3 (WT or swapped via editing). A given SH3 may therefore not be fully replaceable with other paralogous or orthologous domains. This pattern is confirmed by cellular growth phenotypic analyses (Supplementary Fig. 2D, E). PPIs, SH3 sequence similarity, and growth profiles under stress conditions are correlated (Supplementary Fig. 2D, E). This relationship is particularly clear when analyzing growth on media supplemented with hygromycin.
The stuffing of YSC84 SH3 rendered the strain sterile and was therefore not used for this study as the assays require crosses. For genes containing two SH3s (BZZ1 and BEM1), a combination of this first stuffer with a second one ([…]) coding for a highly similar linker ([…]) was used, which allowed targeting each SH3 position independently. The two N-terminal domains of SLA1, which are separated by six nucleotides, were stuffed by a single stuffer. Cells containing pCAS were selected via the G418 resistance cassette from the plasmid on YPD plates (YPD + NAT 100 μg/ml (DHFR F[1,2] selection) + G418 200 µg/mL (Bioshop Canada)). Colonies were randomly selected and grown in YPD media without G418 to allow plasmid loss. The correct insertion of the stuffer was validated by PCR and Sanger sequencing. The SH3-swapped, -shuffled, and -mutated strains were constructed following a second CRISPR–Cas9 editing step with the same procedures. The stuffer sequences were targeted by specific gRNAs (one gRNA per stuffer) and replaced by PCR amplified specific SH3 (with 40 bp homology arms) or libraries of mutated SH3 domains for Deep Mutational Scanning (DMS) with 78 bp flanking homology regions. Validation of the SH3 domain insertions was done as we previously described except for DMS libraries (see below).
The overall DHFR-PCA pipeline is based on Tarassov et al.[43] and the procedures have also been published as a visualized protocol. The screens were performed with robotically manipulated pin tools (BM5-SC1, S&P Robotics Inc.). First, the preys were cherry-picked from 96-well plates to omnitrays in a 384 format on YPD + HPH solid media. Plates were then combined into the 1536 format on YPD + HPH. The array was constituted of 575 preys previously shown to interact physically with at least one SH3-containing protein as reported in BioGRID V3.4.16 along with 40 negative controls. The prey array comprised a border of control strains of two rows and two columns corresponding to the PPI between LSM8-DHFR F[1,2] and CDC39-DHFR F[3]. This double border was used to remove border effects. Preys are present in duplicate at a randomized position in the 1536 array (except for YAL041W which is present four times per array). Baits were crossed with two prey plates, resulting in four independent bait–prey tests for each PPI. Baits were grown in liquid YPD + NAT and then transferred on solid YPD + NAT omnitrays. They were then replicated on YPD + NAT omnitrays in 1536 array format. […]

Row | Molecule | Interactions in Abp1
11 | B1 | 107
12 | B2 | 77
13 | B3 | 106
14 | B4 | 15
15 | B5 | 100

Source: paper PMC7954794, “Protein context shapes the specificity of SH3 domain-mediated interactions in vivo” (Nature Communications, 2021)
